From patent US20260153518 come the findings set out here.

The target of series [1] is candidate peptide No. 16 (mIFN-gamma positions 143-154), 5-carboxyfluorescein labelled.
Series [2] has as its target PJ-8 (positive control peptide).
The target in series [3] is candidate peptide No. 19 (hCXCL-7 positions 76-89), 5-carboxyfluorescein labelled.
Series [4] has as its target PP-2b (positive control peptide).
In series [5] the target is candidate peptide No. 6 (hIFN-alpha-6 positions 150-161), 5-carboxyfluorescein labelled.
Series [6] deals with candidate peptide No. 20 (hCXCL-3 positions 1-14, Cys replaced with Ser), 5-carboxyfluorescein labelled.
In series [7] the target is candidate peptide No. 11 (hIFN-gamma positions 126-139), 5-carboxyfluorescein labelled.
For series [8], the target named is candidate peptide No. 22 (hCXCL-5 positions 3-15, Cys replaced with Ser), 5-carboxyfluorescein labelled.
Series [9] deals with candidate peptide No. 4 (hIFN-alpha-10 positions 150-161), 5-carboxyfluorescein labelled.
The target of series [10] is candidate peptide No. 17 (mCXCL-1 positions 1-14, Cys replaced with Ser), 5-carboxyfluorescein labelled.
Series [11] concerns the target candidate peptide No. 15 (mIFN-gamma positions 128-141), 5-carboxyfluorescein labelled.
Series [12] deals with candidate peptide No. 7 (hIFN-alpha-2 positions 154-165), 5-carboxyfluorescein labelled.
Series [13] deals with candidate peptide No. 5 (hIFN-alpha-6 positions 154-165), 5-carboxyfluorescein labelled.
The target in series [14] is candidate peptide No. 2 (hCCL-14 positions 61-74), 5-carboxyfluorescein labelled.

B1: human MMP12 (matrix metalloproteinase 12), activated with APMA (protein)
chain: GPVWRKHYITYRINNYTPDMNREDVDYAIRKAFQVWSNVTPLKFSKINTGMADILVVFARGAHGDFHAFDGKGGILAHAFGPGSGIGGDAHFDEDEFWTTHSGGTNLFLTAVHEIGHSLGLGHSSDPKAVMFPTYKYVDINTFRLSADDIRGIQSLYGDPKENQRLPNPDNSEPALCDPNLSFDAVTTVGNKIFFFKDRFFWLKVSERPKTSVNLISSLWPTLPSGIEAAYEIEARNQVFLFKDDKYWLISNLRPEPNYPKSIHSFGFPNFVKKIDAAVFNPRFYRTYFFVDNQYWRYDERRQMMDPGYPKLITKNFQGIGPKIDAVFYSKNKYYYFFQGSNQFEYDFLLQRITKTLKSNSWFGC
As to B1, the Cleavage rate (%) in series [1] came to 61.7%; in series [3], 26%; in series [5], 90.3%; in [6] it was 100%; in series [7], 100%; in series [8], 100%. Besides, the Cleavage rate (%) in series [9] was determined as 53.5%; in series [10], 98.6%; in series [11], 10.5%; in series [12] it was 70.4%; in series [13], 38.5%; in series [14], 56%. Further, the “cleavage by MMP12 (UPLC)” value in [2] and in series [4] was “it was confirmed that the two positive controls were cleaved by MMP12 (data is not shown)” throughout.
